A word on the Kd: it is the constant that tells how readily two partners part at equilibrium. A low value points to a tighter complex.

The assay deals with T1, soluble extracellular immunoglobulin-like domain of FcμR (human).
T1 construct: FcμR (FAIM3, TOSO), human; 390-aa polypeptide with a 17-aa signal peptide and a 107-aa Ig-like domain; The receptor clone came from Prof; H. Kubagawa; also called sIgFcμR; not shown: His tag (from the nickel column chromatography)
T1 sequence (O60667 whole entry, looked up): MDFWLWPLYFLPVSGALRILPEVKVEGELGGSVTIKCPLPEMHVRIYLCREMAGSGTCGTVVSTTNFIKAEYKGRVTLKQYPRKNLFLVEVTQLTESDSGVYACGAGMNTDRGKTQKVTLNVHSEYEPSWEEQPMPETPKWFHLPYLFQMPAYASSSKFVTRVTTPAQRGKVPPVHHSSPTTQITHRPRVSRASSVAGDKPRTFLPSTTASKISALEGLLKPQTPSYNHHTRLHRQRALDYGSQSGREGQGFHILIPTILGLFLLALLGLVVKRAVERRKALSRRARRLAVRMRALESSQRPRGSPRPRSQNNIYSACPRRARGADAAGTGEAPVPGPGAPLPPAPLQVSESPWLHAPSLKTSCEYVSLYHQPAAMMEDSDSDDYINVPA
Description: SPR; Biacore T200, 25 °C, 0.01 M HEPES, 0.15 M NaCl, 0.005% Surfactant P20, pH 7.4; IgM, IgM-Fc, Fcμ3-4 or IgM-Fc mutants immobilised on CM5 by amine coupling; analyte sIgFcμR 0.25 μM to 12 μM; steady state, 1:1 binding model. Conditions: both partners purified.

B1: Fcμ3-4, dimer of Cμ3-Cμ4 domains (domain or fragment)
chain: DQDTAIRVFAIPPSFASIFLTKSTKLTCLVTDLTTYDSVTISWTRQNGEAVKTHTNISESHPNATFSAVGEASISEDDWNSGERFTCTVTHTDLPSPLKQTISRPKGVALHRPDVYLLPPAREQLNLRESATITCLVTGFSPADVFVQWMQRGQPLSPEKYVTSAPMPEPQAPGRYFAHSILTVSEEEWNTGETYTCVVAHEALPNRVTERTVDKSTGK
Molecule B1 had a Kd of 1090 nM.

For the origin of these results see publication PMC6905151, “Mapping of the binding site for FcμR in human IgM-Fc” (Biochimica et Biophysica Acta. Proteins and Proteomics, 2020).
